Here are results for one substance from US20220401482A1, “GENERATION OF CD38 KNOCK-OUT PRIMARY AND EXPANDED HUMAN NK CELLS” (RESEARCH INSTITUTE AT NATIONWIDE CHILDREN'S HOSPITAL, priority 2019, published 2022).

This experiment has as its target CD38 (cluster of differentiation 38) on human NK cells and multiple myeloma cells (human) (UniProt P28907). As to the kind of experiment: cell-based or functional assay.

daratumumab (antibody) displayed a sensitivity to daratumumab-mediated fratricide, unmodified control (CD38-expressing) NK cells of 77%.
